# Where a chain is given by its changes, count along the chain named.
# B1: W18 (IgG1) (antibody, V domains shown)
# VH: QVQLVQSGAEVKKPGSSVKVSCKASGYTFDRYWIEWVRQAPGQGLEWMGEILPGSGTINYNEKFKGRVTITADKSTSTAYMELSSLRSEDTAVYYCARMYYDYDQGFDNWGQGTLVTVSS
# VL: DIQMTQSPSSLSASVGDRVTITCKFSQDIDRFLSWFQQKPGKAPKSLIYRVKRLVDGVPSRFSGSGSGTDFTLTISSLQPEDFATYYCVQYDEFPYTFGGGTKVEIKR
# notes: humanized, IgG1 kappa
# B2: W20 (IgG1) (antibody, V domains shown)
# VH: B1 VH with T57D, N109Y
# VL: B1 VL
# notes: humanized, IgG1 kappa
# B3: W17 (IgG1) (antibody)
# heavy: not shown
# light: DIQMTQSPSSLSASVGDRVTITCKFSQDIDRFLSWFQQKPGKAPKSLIYRVKRLVDGVPSRFSGSGSGTDFTLTISSLQPEDFATYYCVQYDEFPYGFGGGTKVEIKRTVAAPSVFIFPPSDEQLKSGTASVVCLLNNFYPREAKVQWKVDNALQSGNSQESVTEQDSKDSTYSLSSTLTLSKADYEKHKVYACEVTHQGLSSPVTKSFNRGEC
# notes: humanized, IgG1 kappa
# B4: W17 (IgG4) (antibody)
# heavy: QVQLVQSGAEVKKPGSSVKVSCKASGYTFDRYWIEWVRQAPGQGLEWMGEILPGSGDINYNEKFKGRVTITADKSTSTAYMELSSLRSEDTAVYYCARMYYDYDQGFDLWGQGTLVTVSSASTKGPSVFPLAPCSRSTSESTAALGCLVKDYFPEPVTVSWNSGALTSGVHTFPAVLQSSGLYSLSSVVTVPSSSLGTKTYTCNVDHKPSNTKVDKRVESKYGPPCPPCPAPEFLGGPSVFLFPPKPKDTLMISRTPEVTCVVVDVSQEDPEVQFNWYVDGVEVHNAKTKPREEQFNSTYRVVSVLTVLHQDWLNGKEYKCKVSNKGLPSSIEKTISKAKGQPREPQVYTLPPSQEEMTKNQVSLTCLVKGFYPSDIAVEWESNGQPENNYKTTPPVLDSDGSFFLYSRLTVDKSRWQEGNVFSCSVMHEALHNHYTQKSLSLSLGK
# light: B3 light
# notes: humanized, IgG4 kappa
# B5: U43 (IgG1) (antibody, V domains shown)
# VH: B1 VH with T57D, D108S, N109L
# VL: B1 VL with F25A
# notes: humanized, IgG1 kappa
# B6: W13 (IgG1) (antibody, V domains shown)
# VH: B1 VH with T57D, N109Y
# VL: B1 VL with S34T, V89I
# notes: humanized, IgG1 kappa
# B7: Mu007 (antibody, V domains shown)
# VH: QVQLQQSGAELMKPGASVKISCKATGYTFSRYWIEWIKQRPGHGLEWIGEILPGNGNINYNEKFKGKATISADSSSETAYMQLSSLSSEDSAVYYCSTIYYDYDQGFTYWGQGTLVTVSA
# VL: DIKMTQSPSSMYASLGERVTITCKASQDIDRYLSWFQQKPGKSPKTLIYRVKRLVDGVPSRFSGSASGQDYSLTISSLQYEDMGIYYCLQYDEFPYTFGGGTKLEIK
# Target: T1, human IL-1β (human, UniProt P01584 117-269)
# T1 construct: mature; the summary says that the SPR values are for mature human IL-1β; also called mature human IL-1β; Interleukin-1β
# Assay: SPR (BIAcore), antibody captured on protein A, human IL-1β flowed; HBS-EP pH 7.4, 25 C
# Procedure: BIAcore™ is an automated biosensor system that measures molecular interactions. (Karlsson, et al. (1991) J. Immunol. Methods 145: 229-240). In these experiments antibody was captured to a surface at low density on a BIAcore™ chip. Ethyl-dimethylaminopropyl-carbodiimide (EDC) was used to couple reactive amino groups to protein A to a flow cell of a carboxy-methyl (CM5) BIAcore sensor chip. Protein A was diluted in sodium acetate buffer, pH 4.5, and immobilized on a flow cell of a CM5 chip using EDC to yield 1000 response units. Unreacted sites were blocked with ehanolamine. A flow rate of 60 μl/min was used. […] Elution was performed with glycine-HCl, pH 1.5. BIAevaluation™ was used to analyze the kinetic data.
Kd,koff,kon,Binder
4.2 pM,0.00018 s⁻¹,4.1e+07 M⁻¹ s⁻¹,B1
2.7 pM,0.0001 s⁻¹,3.8e+07 M⁻¹ s⁻¹,B2
2.8 pM,9e-05 s⁻¹,3.1e+07 M⁻¹ s⁻¹,B3
3.3 pM,0.0001 s⁻¹,3.2e+07 M⁻¹ s⁻¹,B4
4.7 pM,0.00022 s⁻¹,4.7e+07 M⁻¹ s⁻¹,B5
2.8 pM,0.00017 s⁻¹,6.1e+07 M⁻¹ s⁻¹,B6

# Target: T1, human IL-1β
# Assay: cell-based or functional assay
"Fold Increase in Potency (against Mu007), T1165.17 cell proliferation assay","IC50, T1165.17 cell proliferation assay (human IL-1β 0.3 pM)",Binder
10 fold,2 pM,B1
17 fold,1.2 pM,B2
11 fold,1.8 pM,B3
12 fold,1.7 pM,B4
5 fold,4 pM,B5
17 fold,1.2 pM,B6
1 fold,20.6 pM,B7

# Target: T1, human IL-1β
# Assay: SPR (BIAcore), captured antibody, human IL-1β flowed; protocol for Mu007 as in PCT/US02/21281; HBS-EP pH 7.4, 25 C
Kd,koff,kon,Binder
6.2 pM,0.00016 s⁻¹,2.6e+07 M⁻¹ s⁻¹,B7

# Target: T1, human IL-1β
# Assay: cell-based or functional assay
# Remark: another data set of the same source
"IL-6 Serum Levels in mice, human IL-1β 3 µg/kg + antibody 13 µg/kg","IL-6 Serum Levels in mice, human IL-1β 3 µg/kg + antibody 27 µg/kg","IL-6 Serum Levels in mice, human IL-1β 3 µg/kg + antibody 81 µg/kg","IL-6 Serum Levels in mice, human IL-1β 3 µg/kg + antibody 270 µg/kg",Binder
398 pg/mL,232 pg/mL,77.9 pg/mL,18 pg/mL,B1
567 pg/mL,410 pg/mL,114 pg/mL,27.5 pg/mL,B3
756 pg/mL,509 pg/mL,186 pg/mL,39.3 pg/mL,B5
655 pg/mL,277 pg/mL,129 pg/mL,23.4 pg/mL,B6

# Reference: patent US20060140932A1 (APPLIED MOLECULAR EVOLUTION, published 2006)
